Assay results reported in patent publication US20250179176A1, “ANTI-TIGIT ANTIBODIES AND USES OF THE SAME” (ARCUS BIOSCIENCES, INC., priority 2022, published 2025).

What was measured:
CD8+ T cells = experiment: Ki67 on circulating CD8+ T cells (whole blood flow cytometry); assay type: in vivo, human
Experimental: Quantitation of Ki-67, a nuclear protein associated with cell cycle, is a common method to evaluate cell proliferation, especially in human samples ex vivo.
Immune cell profiling was conducted in whole blood by flow cytometry. For patients enrolled in the study described in Example 5 or Example 6, Ki67 changes on CD8^+ T cells were evaluated in whole blood by similar methods. Extracellular staining cocktails which included (minimally) CD3, CD8, and CD56 antibodies were added to 500 ul of whole blood and incubated on ice for 30 minutes. These markers were used to identify CD8^+ T cells (CD3^+CD56^− CD8^+) in both studies. For patients in the study of Example 6, extracellular cocktails also included CD45RA, CD39, and CD103 antibodies to identify an antigen-experienced memory CD8^+ T cell population (CD3^+CD56^−CD8^+CD45RA^−CD39^+CD103^+). Following extracellular staining, all blood samples were fixed and lysed using 1×BD FACSLyse buffer for 20 minutes on ice and then stored at −80° C. for up to 6 weeks. Upon thawing, samples were centrifuged at 400×g for 5 min to remove the lysing solution, washed in PBS, and then fixed and permeabilized in 100 ul of 1×FoxP3 Fixation Buffer for 1 hour at room temperature. […] The maximum fold change observed with the first cycle of treatment (between C1D1 and C2D29) was also determined for Ki67 expression on CD8^+ T cells.

[1] = Phase 2 study in front-line NSCLC (ARC-7), safety
[2] = all domvanalimab containing arms, 74 participants, initial cutoff

Molecule: zimberelimab: antagonistic PD-1 antibody, immune checkpoint inhibitor
- proliferating CD8+ T cells (CD8+ T cells; patients of the Example 6 study, PD-L1hi NSCLC): Increases
- Any TEAEs Leading to Death ([1]; Table 4, initial cutoff): 3 (8) n (%)
- SAE COVID-19, events ([1]; Table 7, initial cutoff): 0 n
- SAE COVID-19, subjects ([1]; Table 7, initial cutoff): 0 n (%)
- Any TEAEs Leading to Death ([1]; Table 10, later cutoff): 3 (6.0) n (%)
- Any TEAEs Leading to Death, related to study treatment ([1]; Table 10, later cutoff): 1 (2.0) n (%)
- Grade 5 TEAEs related to study treatment (per physician assessment) ([1]; safety population (149 patients)): interstitial lung disease

B1: domvanalimab: anti-TIGIT antibody with engineered IgG1 Fc, reduced FcγR binding; heavy chain SEQ ID NO: 12, light chain SEQ ID NO: 13 (antibody)
heavy: EVQLVESGGGLVQPGGSLRLSCAASGFTFSNFGMHWVRQAPGKGLEWVAFISSGSSSIYYADTVKGRFTISRDNAKNSLYLQMNSLRAEDTAVYYCARMRLDYYAMDYWGQGTMVTVSSASTKGPSVFPLAPSSKSTSGGTAALGCLVKDYFPEPVTVSWNSGALTSGVHTFPAVLQSSGLYSLSSVVTVPSSSLGTQTYICNVNHKPSNTKVDKKVEPKSCDKTHTCPPCPAPEAAGGPSVFLFPPKPKDTLMISRTPEVTCWVDVSHEDPEVKFNWYVDGVEVHNAKTKPREEQYNSTYRWSVLTVLHQDWLNGKEYKCKVSNKALPAPIEKTISKAKGQPREPQVYTLPPSRDELTKNQVSLTCLVKGFYPSDIAVEWESNGQPENNYKTTPPVLDSDGSFFLYSKLTVDKSRWQQGNVFSCSVMHEALHNHYTQKSLSLSPGK
light: DIQMTQSPSSLSASVGDRVTITCRASKSISKYLAWYQQKPGKAPKLLIYSGSTLQSGVPSRFSGSGSGTDFTLTISSLQPEDFATYYCQQHNEYPWTFGGGTKVEIKRTVAAPSVFIFPPSDEQLKSGTASWCLLNNFYPREAKVQWKVDNALQSGNSQESVTEQDSKDSTYSLSSTLTLSKADYEKHKVYACEVTHQGLSSPVTKSFNRGEC
- proliferative marker (Ki67) on circulating CD8+ T cells (CD8+ T cells; patients of the Example 5 study): increases
- fatal case of myocarditis related to study treatment ([1]; 74 participants, case received domvanalimab and zimberelimab): 1.3%
- fatal case of pneumonitis related to study treatment ([1]; 74 participants, case received domvanalimab, zimberelimab and etrumadenant): 1.3%
- TEAE leading to domvanalimab dose modification/interruption [1, 2]: 27.0%
- discontinued domvanalimab due to a TEAE [1, 2]: 4.0%
- participants with TEAE Grade ≥3 [1, 2]: 45.9%
- participants with TEAEs Grade ≥3 related to domvanalimab [1, 2]: 10.8%
- participants with at least 1 TEAE [1, 2]: 93.2%
- participants with serious adverse events [1, 2]: 25.6%
- participants with treatment related AE related to domvanalimab [1, 2]: 56.7%
- participants with treatment related SAEs [1, 2]: 8.3%
